# Molecular target: the molecule itself
# Assay: SEC; size-exclusion chromatography of purified proteins (Supplemental Fig. 3); the purification used Superdex 200 (26/600) in 20 mM HEPES 7.5, 500 mM KCl
row,Protein,stoichiometry N
1,"Thermus thermophilus Csm6 (enzyme, UniProt Q53W17 1-464, looked up, amplified from genomic DNA; Homodimer in the crystal and in solution; also called TtCsm6; TTHB152; not shown: His6, N-terminal, cleaved) MEDLDALWERYREAVRAGGNPQALYQEMVWPALLALWREKPRVYPFPQAFAVSVHTLGTSPEATALAILGAGAERVYVLHTPESARFLPRLRQDTGKDLYPVEIGKSDVEAIYREVKRLLEKHPEVPVALDLTSGTKAMSAGLAAAGFFFQRFYPKVRVVYVDNEDYDPELRRPRAGTEKLRILPNPHEALAEVDALFAKELYGKGEFGQAAAYFRGMVGRTGNQAYALYALLAEMYRAWRALDFGEALKAGRKLLGQLSQNVWLNHPLNARREALEAQVALLEAVDRFLKARDFALKEGVYGLARTLLHLAQEAKEEAAVLAALYAYRALELLLQERLALLGRRAEAPGLSPEEAEALRKALAELLGVLPEEVRLPAKLGLLDLLAFLRLKGDEALGRLSLAELRGLAGALKGRNSALLVHGFDVPSPKAVEGIARLAQGLLQDLEARTALGPLSPEPVPLGF",2
2,"TtCsm6 with Arg415 substituted by alanine (enzyme, Thermus thermophilus, UniProt Q53W17 1-464, looked up, also called R415A; not shown: His6, N-terminal, cleaved) MEDLDALWERYREAVRAGGNPQALYQEMVWPALLALWREKPRVYPFPQAFAVSVHTLGTSPEATALAILGAGAERVYVLHTPESARFLPRLRQDTGKDLYPVEIGKSDVEAIYREVKRLLEKHPEVPVALDLTSGTKAMSAGLAAAGFFFQRFYPKVRVVYVDNEDYDPELRRPRAGTEKLRILPNPHEALAEVDALFAKELYGKGEFGQAAAYFRGMVGRTGNQAYALYALLAEMYRAWRALDFGEALKAGRKLLGQLSQNVWLNHPLNARREALEAQVALLEAVDRFLKARDFALKEGVYGLARTLLHLAQEAKEEAAVLAALYAYRALELLLQERLALLGRRAEAPGLSPEEAEALRKALAELLGVLPEEVRLPAKLGLLDLLAFLRLKGDEALGRLSLAELRGLAGALKGANSALLVHGFDVPSPKAVEGIARLAQGLLQDLEARTALGPLSPEPVPLGF",2
3,"TtCsm6 with Asn416 substituted by alanine (enzyme, Thermus thermophilus, UniProt Q53W17 1-464, looked up, also called N416A; not shown: His6, N-terminal, cleaved) MEDLDALWERYREAVRAGGNPQALYQEMVWPALLALWREKPRVYPFPQAFAVSVHTLGTSPEATALAILGAGAERVYVLHTPESARFLPRLRQDTGKDLYPVEIGKSDVEAIYREVKRLLEKHPEVPVALDLTSGTKAMSAGLAAAGFFFQRFYPKVRVVYVDNEDYDPELRRPRAGTEKLRILPNPHEALAEVDALFAKELYGKGEFGQAAAYFRGMVGRTGNQAYALYALLAEMYRAWRALDFGEALKAGRKLLGQLSQNVWLNHPLNARREALEAQVALLEAVDRFLKARDFALKEGVYGLARTLLHLAQEAKEEAAVLAALYAYRALELLLQERLALLGRRAEAPGLSPEEAEALRKALAELLGVLPEEVRLPAKLGLLDLLAFLRLKGDEALGRLSLAELRGLAGALKGRASALLVHGFDVPSPKAVEGIARLAQGLLQDLEARTALGPLSPEPVPLGF",2
4,"TtCsm6 with His422 substituted by alanine (enzyme, Thermus thermophilus, UniProt Q53W17 1-464, looked up, also called H422A; not shown: His6, N-terminal, cleaved) MEDLDALWERYREAVRAGGNPQALYQEMVWPALLALWREKPRVYPFPQAFAVSVHTLGTSPEATALAILGAGAERVYVLHTPESARFLPRLRQDTGKDLYPVEIGKSDVEAIYREVKRLLEKHPEVPVALDLTSGTKAMSAGLAAAGFFFQRFYPKVRVVYVDNEDYDPELRRPRAGTEKLRILPNPHEALAEVDALFAKELYGKGEFGQAAAYFRGMVGRTGNQAYALYALLAEMYRAWRALDFGEALKAGRKLLGQLSQNVWLNHPLNARREALEAQVALLEAVDRFLKARDFALKEGVYGLARTLLHLAQEAKEEAAVLAALYAYRALELLLQERLALLGRRAEAPGLSPEEAEALRKALAELLGVLPEEVRLPAKLGLLDLLAFLRLKGDEALGRLSLAELRGLAGALKGRNSALLVAGFDVPSPKAVEGIARLAQGLLQDLEARTALGPLSPEPVPLGF",2
5,"TtCsm6 with Glu332 substituted by alanine (enzyme, Thermus thermophilus, UniProt Q53W17 1-464, looked up, also called E332A; not shown: His6, N-terminal, cleaved) MEDLDALWERYREAVRAGGNPQALYQEMVWPALLALWREKPRVYPFPQAFAVSVHTLGTSPEATALAILGAGAERVYVLHTPESARFLPRLRQDTGKDLYPVEIGKSDVEAIYREVKRLLEKHPEVPVALDLTSGTKAMSAGLAAAGFFFQRFYPKVRVVYVDNEDYDPELRRPRAGTEKLRILPNPHEALAEVDALFAKELYGKGEFGQAAAYFRGMVGRTGNQAYALYALLAEMYRAWRALDFGEALKAGRKLLGQLSQNVWLNHPLNARREALEAQVALLEAVDRFLKARDFALKEGVYGLARTLLHLAQEAKEEAAVLAALYAYRALALLLQERLALLGRRAEAPGLSPEEAEALRKALAELLGVLPEEVRLPAKLGLLDLLAFLRLKGDEALGRLSLAELRGLAGALKGRNSALLVHGFDVPSPKAVEGIARLAQGLLQDLEARTALGPLSPEPVPLGF",2

# — paper PMC4748810, “Structural basis for the endoribonuclease activity of the type III-A CRISPR-associated protein Csm6” (RNA, 2016)
